Test results published in patent publication US12612465B2, “Formulations comprising PCSK9 specific monoclonal antibodies” (Amgen Inc., priority 2012, dated 2026).
Changes are numbered by the printed parent chain.

Legend:
human D374Y PCSK9 = human D374Y PCSK9 (Homo sapiens, UniProt Q8NBP7, D374Y/E620G/G670E/V474I); assay: Receptor ligand blocking screen / functional screening of hybridoma antibodies; assay type: binding
Description: To screen for the antibodies that block PCSK9 binding to LDLR an assay was developed using the D374Y PCSK9 mutant. […] The following protocol was employed in the receptor ligand blocking screen: Costar 3702 medium binding 384 well plates (Corning Life Sciences) were employed in the screen. The plates were coated with goat anti-LDLR (R&D Cat # AF2148) at 2 μg/ml in 1×PBS/0.05% Azide at a volume of 40 μl/well. The plates were incubated at 4° C. overnight. The plates were then washed using a Titertek plate washer (Titertek, Huntsville, Ala.). A 3-cycle wash was performed. The plates were blocked with 90 μl of 1×PBS/1% milk and incubated approximately 30 minutes at room temperature. The plates were then washed using the Titertek plate washer. A 3-cycle wash was performed. The capture sample was LDLR (R&D, Cat #2148LD/CF), and was added at 0.4 μg/ml in 1×PBS/1% milk/10 mM Ca^2+ at a volume of 40 μl/well. The plates were then incubated for 1 hour and 10 minutes at room temperature. Contemporaneously, 20 ng/ml of biotinylated human D374Y PCSK9 was incubated with 15 micro liters of hybridoma exhaust supernatant in Nunc polypropylene plates and the exhaust supernatant concentration was diluted 1:5. The plates were then pre-incubated for about 1 hour and 30 minutes at room temperature. Next, the plates were washed using the Titertek plate washer operated using a 3-cycle wash. 50 μl/well of the pre-incubated mixture was transferred onto the LDLR coated ELISA plates and incubated for 1 hour at room temperature. To detect LDLR-bound b-PCSK9, 40 μl/well streptavidin HRP at 500 ng/ml in assay diluent was added to the plates. The plates were incubated for 1 hour at room temperature. The plates were again washed using a Titertek plate washer. A 3-cycle wash was performed. Finally, 40 μl/well of One-step TMB (Neogen, Lexington, Ky.) was added to the plate and was quenched with 40 μl/well of 1N hydrochloric acid after 30 minutes at room temperature. OD's were read immediately at 450 nm using a Titertek plate reader.
The receptor ligand assay was then repeated using the mutant enzyme on the 384 member subset of neutralizers identified in the first large scale receptor ligand inhibition assay. The same protocol was employed in the screen of the 384 member blocker subset assay as was done in the large scale receptor ligand blocking screen.
Limiting dilution was used to isolate a manageable number of clones from each line. […] The isolated clones were each expanded in 50-100 ml of hybridoma media and allowed to grow to exhaustion, (i.e., less than about 10% cell viability). The concentration and potency of the antibodies to PCSK9 in the supernatants of those cultures were determined by ELISA and by in vitro functional testing, as described herein.

human PCSK9 [1] = biological target: T1, human PCSK9 (Homo sapiens, UniProt Q8NBP7, E620G/G670E/V474I); assay: BIAcore affinity analysis; assay type: binding
T1 construct: made in house
T1 sequence (Q8NBP7 153-692 V474I/E620G/G670E): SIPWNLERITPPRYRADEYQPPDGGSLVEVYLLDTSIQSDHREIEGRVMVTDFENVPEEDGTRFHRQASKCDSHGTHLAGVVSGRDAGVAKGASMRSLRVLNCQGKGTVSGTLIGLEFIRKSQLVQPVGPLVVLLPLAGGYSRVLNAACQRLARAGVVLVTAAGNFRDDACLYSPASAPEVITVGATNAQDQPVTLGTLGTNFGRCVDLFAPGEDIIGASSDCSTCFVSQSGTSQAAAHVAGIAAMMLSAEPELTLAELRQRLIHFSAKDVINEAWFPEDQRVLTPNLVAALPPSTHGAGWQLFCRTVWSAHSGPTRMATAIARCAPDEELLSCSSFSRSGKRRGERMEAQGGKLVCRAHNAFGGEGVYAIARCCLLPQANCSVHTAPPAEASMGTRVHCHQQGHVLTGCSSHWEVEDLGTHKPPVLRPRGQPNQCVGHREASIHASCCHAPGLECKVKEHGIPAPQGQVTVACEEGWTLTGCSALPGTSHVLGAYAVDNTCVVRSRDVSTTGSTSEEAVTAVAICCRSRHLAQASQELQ
Description: Briefly, the surface plasmon resonance experiments were performed using Biacore 2000 optical biosensors (Biacore, GE Healthcare, Piscataway, N.J.). […] The concentration of PCSK9 protein was varied at 2 fold intervals (the analyte) and was injected over the immobilized antibody surface (at a flow rate of 100 μl/min for 1.5 minutes). […]
The binding signal obtained was proportional to the free PCSK9 in solution.
Antibody binding kinetic parameters including ka (association rate constant), […] (dissociation rate constant), and KD (dissociation equilibrium constant) were determined using the BIA evaluation 3.1 computer program (BIAcore, Inc. Piscataway, N.J.).

human PCSK9 [2] = biological target: T1, human PCSK9; assay: KinExA affinity analysis; assay type: binding; settings: hPCSK9, KinExA
Excerpt: Briefly, Reacti-Gel™ (6×) (Pierce) was pre-coated with one of human, V5-tagged cyno or His-tagged mouse PCSK9 proteins and blocked with BSA. […] Equilibrium dissociation constant (KD) were obtained from nonlinear regression of the two sets of competition curves using a one-site homogeneous binding model. The KinExA® Pro software was employed in the analysis.

PCSK9 protein = biological target: T2, PCSK9 protein (Mus musculus, UniProt Q80W65); assay: Serum cholesterol and HDL in WT mice, 13 day study; assay type: in vivo; settings: 10 mg/kg, repeated 13 day study
T2 construct: endogenous in cells; host or cells: WT C57BL/6 mice, in vivo
T2 sequence (Q80W65 156-694): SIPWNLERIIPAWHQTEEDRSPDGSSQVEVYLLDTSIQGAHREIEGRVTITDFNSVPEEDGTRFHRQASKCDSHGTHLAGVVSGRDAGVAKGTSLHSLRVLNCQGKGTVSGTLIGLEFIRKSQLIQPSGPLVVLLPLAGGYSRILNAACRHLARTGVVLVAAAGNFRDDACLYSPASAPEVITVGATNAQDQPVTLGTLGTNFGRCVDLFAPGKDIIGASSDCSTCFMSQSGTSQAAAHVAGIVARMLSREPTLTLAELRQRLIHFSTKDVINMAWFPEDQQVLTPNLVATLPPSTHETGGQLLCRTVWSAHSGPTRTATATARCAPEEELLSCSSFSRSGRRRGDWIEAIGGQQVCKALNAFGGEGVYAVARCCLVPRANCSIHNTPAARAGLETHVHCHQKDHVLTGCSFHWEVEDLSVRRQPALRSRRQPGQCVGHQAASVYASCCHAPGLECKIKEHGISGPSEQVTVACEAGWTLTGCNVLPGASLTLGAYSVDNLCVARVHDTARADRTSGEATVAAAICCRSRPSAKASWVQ
Excerpt: Male WT mice (C57BL/6 strain, aged 9-10 weeks, 17-27 g) obtained from Jackson Laboratory (Bar Harbor, Me.) were fed a normal chow (Harland-Teklad, Diet 2918) through out the duration of the experiment. […] Naïve mice were also set aside as naïve control group.
Animals were sacrificed and livers were extracted and prepared as in Example 13.

Sequence of human D374Y PCSK9 (Q8NBP7 153-692 D374Y/V474I/E620G/G670E): as the sequence (Q8NBP7 153-692 V474I/E620G/G670E) above, with D222Y counted along it

B1: 27B2: anti-PCSK9 ABP, light/heavy variable region SEQ ID NO 13/87 (antibody, listed as Homo sapiens, V domains shown)
VH: QVQLQESGPGLVKPSQTLSLTCTVSGGSISSGGYYWSWIRQHPGKGLEWIGYIYNSGSTYYNPSLKSRVTISVDTSKNQFSLKLSSVTAADTAVYYCAREDTAMVPYFDYWGQGTLVTVSS
VL: QSVLTQPPSVSGAPGQRVTISCTGSSSNIGAHYDVHWYQQVPGTAPKLLIYGNTYRPSGVPDRFSGSKSGTSASLAITGLQAEDEADYYCQSYDNSLSGVVFGGGTKLTVL
For B1, the neutralizing ability (human D374Y PCSK9) was “non-neutralizing”.

B2: 13H1: anti-PCSK9 ABP, light/heavy variable region SEQ ID NO 28/91 (antibody, listed as Homo sapiens, V domains shown)
VH: QVQLQQSGPGLVKPSQTLSLTCAISGDSVSSNSAAWNWIRQSPSRGLEWLGRTYYRSKWYKNYSVSVKSRITINPDTSKNQFSLQLNSVTPGDTAVYYCARGGPTAAFDYWGQGTLVTVSS
VL: LSALTQPASVSGSPGQSITISCTGTSSDVGNYNLVSWYQQYSGKAPKLMIYEVSKRPSGVSNRFSGSKSGNTASLTISGLQAEDEADYYCCSYAGSSTLVFGGGTKLTVL
With B2 the neutralizing ability (human D374Y PCSK9) was “non-neutralizing”.

B3: 13B5: anti-PCSK9 ABP, light/heavy variable region SEQ ID NO 42/69 (antibody, listed as Homo sapiens, V domains shown)
VH: EVQLLESGGGLVQPGGSLRLSCAASGFTFSSYAMSWVRQAPGKGLEWVSTISGSGGRTYYADSVKGRFTISRDNSKNTLYLQMNSLRAEDTAVYYCAKEVGSPFDYWGQGTLVTVSS
VL: QSVLTQPPSVSAAPGQKVTISCSGSNSNIGNNYVSWYQQLPGTAPKLLIYDNNKRPSGIPDRFSGSNSGTSATLGITGLQTGDEADYYCGTWDSSLSAVVFGGGTKLTVL
For B3, the neutralizing ability (human D374Y PCSK9) was “non-neutralizing”.

B4: 3B6: anti-PCSK9 ABP, light/heavy variable region SEQ ID NO 46/60 (antibody, listed as Homo sapiens, V domains shown)
VH: QVQLVQSGAEVKKPGASVKVSCKASGYTFTSYGISWVRQAPGQGLEWMGWISTYNGNTNYAQKVQGRVTMTTDTSTSTAYMELRSLRSDDTAVYYCARGYTRDYWGQGTLVTVSS
VL: QPVLTQPLFASASLGASVTLTCTLSSGYSSYEVDWYQQRPGKGPRFVMRVDTGGIVGSKGEGIPDRFSVLGSGLNRYLTIKNIQEEDESDYHCGADHGSGTNFVVVFGGGTKLTVL
B4 was tested, and the neutralizing ability (human D374Y PCSK9) was “weak neutralizers”.

B5: 25A7: anti-PCSK9 ABP, light/heavy variable region SEQ ID NO 15/58; neutralizing clone 25A7.3 (antibody, listed as Homo sapiens, V domains shown)
VH: B4 VH with T30P, T53A, Q62E, V64L, L83V, Y94F, T101V, R102M, Y104V, L110T
VL: QSALTQPASVSGSPGQSITISCTGTSSDVGRYNSVSWYQHHPGKAPKVMIYEVSNRPSGVSTRFSGSKSGNTASLTISGLQAEDEADYYCSSYTSSSVVFGGGTKLTVL
In the case of B5, the “blocking of PCSK9/LDLR in the functional assays” value (human D374Y PCSK9; hybridoma clones) is reported as “neutralizing”.

B6: 16F12: anti-PCSK9 ABP, light/heavy variable region SEQ ID NO 35/79 (antibody, listed as Homo sapiens, V domains shown)
VH: QVHLVESGGGVVQPGRSLRLSCAASGFTFNSFGMHWVRQAPGKGLEWVALIWSDGSDEYYADSVKGRFTISRDNSKNTLYLQMNSLRAEDTAVYYCARAIAALYYYYGMDVWGQGTTVTVSS
VL: B3 VL with N26S, Y33F, N52Y, N67K, V99Y, G103T, K106R, L107V
Work on B6 yielded a Kd (human PCSK9 [1]; hPCSK9, pH 7.4 (Table 7.1)) of 0.47 nM, a Koff (human PCSK9 [1]; pH 6) of 7.007e-05 s⁻¹ and a Kon (human PCSK9 [1]; pH 6) of 2.392e+06 M⁻¹ s⁻¹. The Kd (human PCSK9 [1]; pH 6 (pH 6.0 HBS-P buffer, n=1)) was 0.029 nM, the Koff (human PCSK9 [1]; pH 7.4) was 4.983e-05 s⁻¹ and the Kon (human PCSK9 [1]; pH 7.4) was 106400 M⁻¹ s⁻¹. For the same molecule, the Kd (human PCSK9 [1]; pH 7.4 (Table 7.2)) was 0.47 nM, the Kd (human PCSK9 [2]) was 0.015 nM and the “total serum cholesterol after a single dose” value (PCSK9 protein) was “significant and substantial decreases in total serum cholesterol”.
